Data from the supplement of paper PMC9112550, “Optimization of the antimicrobial peptide Bac7 by deep mutational scanning” (BMC Biology, 2022).

System: Escherichia coli TOP10
Assay: shrunken log2 fold change of peptide-encoding DNA abundance (4.5 h post-induction vs induction); higher = less antimicrobial activity (less host growth inhibition)
Settings: time post-induction: 4.5 h; library: site-saturation at positions 5, 18, 19, 20
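Note: peptides expressed intracellularly from a pBAD plasmid library in pooled LB shake-flask culture, induced with 0.3% L-arabinose, DNA abundance read by NGS, three biological replicates, DESeq2 with apeglm shrinkage.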

Row | Sequence | shrunken log2 fold change
1 | RRIRNRPPRLPRPRPRPFYIPRP | -0.51
2 | RRIRHRPPRLPRPRPRPRSWPRP | 0.129
3 | RRIRPRPPRLPRPRPRPRKFPRP | -0.188
4 | RRIRRRPPRLPRPRPRPTCDPRP | 0.502
5 | RRIRDRPPRLPRPRPRPWVWPRP | 0.702
6 | RRIRNRPPRLPRPRPRPGMHPRP | -0.015
7 | RRIRHRPPRLPRPRPRPTPTPRP | 0.138
8 | RRIRWRPPRLPRPRPRPMCMPRP | 0.0952
9 | RRIRGRPPRLPRPRPRPTPDPRP | 1.24
10 | RRIRWRPPRLPRPRPRPKKKPRP | -0.139
11 | RRIRTRPPRLPRPRPRPKSTPRP | 0.0437
12 | RRIRPRPPRLPRPRPRPTYDPRP | -0.212
13 | RRIRKRPPRLPRPRPRPAGVPRP | 0.685
14 | RRIRPRPPRLPRPRPRPWQTPRP | -0.0715
15 | RRIRQRPPRLPRPRPRPGFGPRP | 0.245
16 | RRIRQRPPRLPRPRPRPRCMPRP | -0.164
17 | RRIRVRPPRLPRPRPRPQTSPRP | -0.0971
18 | RRIRTRPPRLPRPRPRPTYGPRP | -0.104
19 | RRIRFRPPRLPRPRPRPMPMPRP | -0.00868
20 | RRIRKRPPRLPRPRPRPHFNPRP | -0.0789
21 | RRIRMRPPRLPRPRPRPWAPPRP | 0.214
22 | RRIRFRPPRLPRPRPRPIAWPRP | -0.0725
23 | RRIRERPPRLPRPRPRPCNMPRP | -0.101

Row | Sequence | shrunken log2 fold change
24 | RRIRLRPPRLPRPRPRPSCEPRP | -0.0674
25 | RRIRSRPPRLPRPRPRPMSIPRP | -0.214
26 | RRIRKRPPRLPRPRPRPPRHPRP | 1.04
27 | RRIRPRPPRLPRPRPRPHWSPRP | 0.26
28 | RRIRQRPPRLPRPRPRPGYTPRP | -0.912
29 | RRIRIRPPRLPRPRPRPLEEPRP | 0.073
30 | RRIRKRPPRLPRPRPRPVTHPRP | 0.0561
31 | RRIRDRPPRLPRPRPRPIPFPRP | -0.306
32 | RRIRDRPPRLPRPRPRPFMSPRP | -0.0203
33 | RRIRERPPRLPRPRPRPFSGPRP | -0.55
34 | RRIRTRPPRLPRPRPRPMQCPRP | -0.00968
35 | RRIRRRPPRLPRPRPRPPMIPRP | 0.0196
36 | RRIRKRPPRLPRPRPRPNNKPRP | -0.162
37 | RRIRFRPPRLPRPRPRPNMWPRP | -0.485
38 | RRIRHRPPRLPRPRPRPFYMPRP | -0.292
39 | RRIRMRPPRLPRPRPRPTEEPRP | -0.000967
40 | RRIRERPPRLPRPRPRPGYKPRP | -0.11
41 | RRIRVRPPRLPRPRPRPLIWPRP | -0.0254
42 | RRIRLRPPRLPRPRPRPITQPRP | -0.264
43 | RRIRVRPPRLPRPRPRPFPSPRP | -0.127
44 | RRIRRRPPRLPRPRPRPLHAPRP | 1.06
45 | RRIRYRPPRLPRPRPRPQHLPRP | -0.262
46 | RRIRKRPPRLPRPRPRPRSTPRP | 0.177

Row | Sequence | shrunken log2 fold change
47 | RRIRVRPPRLPRPRPRPWDSPRP | -0.181
48 | RRIRVRPPRLPRPRPRPPAKPRP | 0.603
49 | RRIRTRPPRLPRPRPRPWHTPRP | -0.0217
50 | RRIRPRPPRLPRPRPRPHECPRP | -1.31
51 | RRIRKRPPRLPRPRPRPFFAPRP | 0.645
52 | RRIRARPPRLPRPRPRPRHDPRP | 0.128
53 | RRIRYRPPRLPRPRPRPHRKPRP | -0.501
54 | RRIRKRPPRLPRPRPRPVFRPRP | 0.278
55 | RRIRFRPPRLPRPRPRPSDCPRP | -0.476
56 | RRIRNRPPRLPRPRPRPTHVPRP | 0.216
57 | RRIRKRPPRLPRPRPRPDPQPRP | 0.729
58 | RRIRCRPPRLPRPRPRPEQHPRP | 0.0913
59 | RRIRRRPPRLPRPRPRPWNMPRP | -0.479
60 | RRIRRRPPRLPRPRPRPNRRPRP | 0.231
61 | RRIRSRPPRLPRPRPRPHWCPRP | -0.125
62 | RRIRSRPPRLPRPRPRPKITPRP | -0.325
63 | RRIRHRPPRLPRPRPRPDVQPRP | 0.0591
64 | RRIRTRPPRLPRPRPRPKMRPRP | 0.0419
65 | RRIRPRPPRLPRPRPRPVPEPRP | 0.0758
66 | RRIRERPPRLPRPRPRPKTVPRP | -0.0153
67 | RRIRERPPRLPRPRPRPMEHPRP | 0.0106
68 | RRIRQRPPRLPRPRPRPFCRPRP | -0.0325
69 | RRIRPRPPRLPRPRPRPTRYPRP | 0.23

Row | Sequence | shrunken log2 fold change
70 | RRIRYRPPRLPRPRPRPKTAPRP | -0.0087
71 | RRIRIRPPRLPRPRPRPGKEPRP | -0.0221
72 | RRIRSRPPRLPRPRPRPAHFPRP | -0.418
73 | RRIRTRPPRLPRPRPRPWLNPRP | -0.0665
74 | RRIRIRPPRLPRPRPRPSSIPRP | -0.169
75 | RRIRKRPPRLPRPRPRPVTEPRP | 0.42
76 | RRIRYRPPRLPRPRPRPNRTPRP | -0.211
77 | RRIRPRPPRLPRPRPRPYRGPRP | 0.153
78 | RRIRIRPPRLPRPRPRPIAWPRP | 0.0253
79 | RRIRCRPPRLPRPRPRPLRGPRP | 0.835
80 | RRIRPRPPRLPRPRPRPSGGPRP | 0.191
81 | RRIRTRPPRLPRPRPRPCSLPRP | -0.128
82 | RRIRPRPPRLPRPRPRPKEHPRP | -0.202
83 | RRIRNRPPRLPRPRPRPMVPPRP | 0.0885
84 | RRIRKRPPRLPRPRPRPWDGPRP | -0.0231
85 | RRIRQRPPRLPRPRPRPSLQPRP | -0.154
86 | RRIRGRPPRLPRPRPRPDEHPRP | 1.5
87 | RRIRLRPPRLPRPRPRPHIYPRP | -0.297
88 | RRIRTRPPRLPRPRPRPDRGPRP | -0.252
89 | RRIRNRPPRLPRPRPRPPWCPRP | 0.108
90 | RRIRLRPPRLPRPRPRPTHSPRP | 0.122
91 | RRIRARPPRLPRPRPRPSHVPRP | -0.306
